This experiment addresses EGFR on HeLa cells (UniProt P00533 25-1210, limits assumed). The experiment is described as follows: cell-based or functional assay.

Where a chain is given by its changes, count along the chain named.

B1: GOMP001_bsAb_037 (bispecific antibody, human IgG1, kappa, L234A L235A)
heavy 1: QVQLVQSGAEVKKPGASVKVSCKASGYTFTSHWMHWVRKAPGQGLEWIGEFNPSNGRTNYNEEFKSKATMTVDTSTNTAYMELSSLRSEDTAVYYCASRDYDYDGRYFDYWGQGTLVTVSSASTKGPSVFPLAPSSKSTSGGTAALGCLVADYFPEPVTVSWNSGALTSGVHTFPAVLQSSGLYSLSSVVTVPSSSLGTQTYICNVNHKPSNTKVDEKVEPKSCDKTHTCPPCPAPEAAGGPSVFLFPPKPKDTLMISRTPEVTCVVVDVSHEDPEVKFNWYVDGVEVHNAKTKPREEQYNSTYRVVSVLTVLHQDWLNGKEYKCKVSNKALPAPIEKTISKAKGQPREPQVYTLPPSREEMTDNQVSLTCLVKGFYPSDIAVEWESNGQPENNYKTTPPVLMSDGSFFLASKLTVDKSRWQQGNVFSCSVMHEALHNHYTQKSLSLSPG
light 1: RIQMTQSPSSLSASVGDRVTITCSASSSVTYMYWYQDKPGKAPKLLIYDTSNLASGVPSRFSGSGSGTDYTFTISSLQPEDIATYYCQQWSSHIFTFGQGTKVEIKRTVAAPSVFIFPPSDKQLKSGTARVVCLLNNFYPREAKVQWKVDNALQSGNSQESVTEQDSKDSTYSLSSTLTLSKADYEKHKVYACEVTHQGLSSPVTKSFNRGEC
heavy 2: EVQLVESGGVLVKTGGSLRLSCVASGFSFKKAWMNWVRYAPGKGLEWVGRIKRNSDGGAADYAARVKDRFTLSRDDSKNTLYLQMNSLKTEDTAVYYCTTLDSSSWYVGYYYMDVWGRGTTVTVSSASTKGPSVFPLAPSSKSTSGGTAALGCLVKDYFPEPVTVSWNSGALTSGVHTFPAVLQSSGLYSLSSVVTVPSSSLGTQTYICNVNHKPSNTKVDKKVEPKSCDKTHTCPPCPAPEAAGGPSVFLFPPKPKDTLMISRTPEVTCVVVDVSHEDPEVKFNWYVDGVEVHNAKTKPREEQYNSTYRVVSVLTVLHQDWLNGKEYKCKVSNKALPAPIEKTISKAKGQPRRPRVYTLPPSREEMTKNQVSLVCLVKGFYPSDIAVEWESNGQPENNYKTTPPVLDSDGSFFLYSVLTVDKSRWQQGNVFSCSVMHEALHNHYTQKSLSLSPG
light 2: DIHMTQSPSSVSASLGDRVTFTCRASQNINNWLAWYQRKPGDAPKLLIYTASSLQSGVPSRFSGSGSGTDFTLTISSLQPDDFATYYCQQAHSLPITFGQGTRLGIKRTVAAPSVFIFPPSDEQLKSGTASVVCLLNNFYPREAKVQWKVDNALQSGNSQESVTEQDSKDSTYSLSSTLTLSKADYEKHKVYACEVTHQGLSSPVTKSFNRGEC
Turning to B1, the Max killing % was found to be 83.6% and the “X… HeLa EC50” value amounted to 0.174 nM.

B2: GOMP001_bsAb_041 (bispecific antibody, human IgG1, kappa, L234A L235A)
heavy 1: B1 heavy 1
light 1: B1 light 1
heavy 2: B1 heavy 2 with V10G, S55T, A59P, D68G, N79K
light 2: DIQMTQSPSSVSASVGDRVIITCRASQDINNWLAWYLRRPGDAPKLLIYAASSLQSGVPSRFSGSGSGTDFTLTIGSLQPEDFATYYCQQAHSLPITFGQGTRLEIQRTVAAPSVFIFPPSDEQLKSGTASVVCLLNNFYPREAKVQWKVDNALQSGNSQESVTEQDSKDSTYSLSSTLTLSKADYEKHKVYACEVTHQGLSSPVTKSFNRGEC
Take B2: the Max killing % is 78.6% and the “X… HeLa EC50” value is 0.449 nM.

B3: GOMP001_bsAb_039 (bispecific antibody, human IgG1, kappa, L234A L235A)
heavy 1: B1 heavy 1
light 1: B1 light 1
heavy 2: B1 heavy 2 with V10G, L18H, A59T, A60T, D68G, T71I
light 2: B1 light 2 with H3Q, L15V, F21I, N28D, L46I, S53N, D81E, Y87F, G105E
For B3, the Max killing % came to 81.1% and the “X… HeLa EC50” value was found to be 0.374 nM.

B4: GOMP001_bsAb_038 (bispecific antibody, human IgG1, kappa, L234A L235A)
heavy 1: EVQLVESGGVLVKTGGSLRLSCVASGFSFKKAWMNWVRKAPGKGLEWVGRIKRNSDGGAADYAAEVKDRFTLSRDDSKNTLYLQMNSLKTEDTAVYYCTTLDSSSWYVGYYYMDVWGKGTTVTVSSASTKGPSVFPLAPSSKSTSGGTAALGCLVADYFPEPVTVSWNSGALTSGVHTFPAVLQSSGLYSLSSVVTVPSSSLGTQTYICNVNHKPSNTKVDEKVEPKSCDKTHTCPPCPAPEAAGGPSVFLFPPKPKDTLMISRTPEVTCVVVDVSHEDPEVKFNWYVDGVEVHNAKTKPREEQYNSTYRVVSVLTVLHQDWLNGKEYKCKVSNKALPAPIEKTISKAKGQPREPQVYTLPPSREEMTDNQVSLTCLVKGFYPSDIAVEWESNGQPENNYKTTPPVLMSDGSFFLASKLTVDKSRWQQGNVFSCSVMHEALHNHYTQKSLSLSPG
light 1: B1 light 2 with D1R, R38D, D42K, E123K, S131R
heavy 2: QVQLVQSGAEVKKPGASVKVSCKASGYTFTSHWMHWVRYAPGQGLEWIGEFNPSNGRTNYNEKFKSKATMTVDTSTNTAYMELSSLRSEDTAVYYCASRDYDYDGRYFDYWGRGTLVTVSSASTKGPSVFPLAPSSKSTSGGTAALGCLVKDYFPEPVTVSWNSGALTSGVHTFPAVLQSSGLYSLSSVVTVPSSSLGTQTYICNVNHKPSNTKVDKKVEPKSCDKTHTCPPCPAPEAAGGPSVFLFPPKPKDTLMISRTPEVTCVVVDVSHEDPEVKFNWYVDGVEVHNAKTKPREEQYNSTYRVVSVLTVLHQDWLNGKEYKCKVSNKALPAPIEKTISKAKGQPRRPRVYTLPPSREEMTKNQVSLVCLVKGFYPSDIAVEWESNGQPENNYKTTPPVLDSDGSFFLYSVLTVDKSRWQQGNVFSCSVMHEALHNHYTQKSLSLSPG
light 2: B1 light 1 with R1D, D37R, K41D, K122E, R130S
Regarding B4, the Max killing % is 93.6% and the “X… HeLa EC50” value amounted to 0.0331 nM.

B5: GOMP001_bsAb_040 (bispecific antibody, human IgG1, kappa, L234A L235A)
heavy 1: B4 heavy 1 with V10G, L18H, A59T, A60T, D68G, T71I
light 1: RIQMTQSPSSVSASVGDRVTITCRASQDINNWLAWYQDKPGKAPKILIYTASNLQSGVPSRFSGSGSGTDFTLTISSLQPEDFATYFCQQAHSLPITFGQGTRLEIKRTVAAPSVFIFPPSDKQLKSGTARVVCLLNNFYPREAKVQWKVDNALQSGNSQESVTEQDSKDSTYSLSSTLTLSKADYEKHKVYACEVTHQGLSSPVTKSFNRGEC
heavy 2: B4 heavy 2
light 2: B1 light 1 with R1D, D37R, K41D, K122E, R130S
With B5, the Max killing % was found to be 89.5% and the “X… HeLa EC50” value is 0.0391 nM.

The record behind these values is patent publication US20230295310A1 (ABCELLERA BIOLOGICS, published 2023).
